Results on one molecule are retold here after patent US20150376286A1 (Amgen, published 2015).

In assay [1] the target is T1, human amylin AMY1 receptor (hCTR + hRAMP1) (human, UniProt P30988 25-474).
T1 construct: whole, on cells; Endogenous in MCF-7 cells (ATCC HTB-22); also called hAmylin 1; hAMY1
In words: immunohistochemistry, MCF-7 cells endogenously expressing amylin receptors, staining intensity (visual score); the text says no staining was observed. As for the experimental part:
(§1) 2-4×10⁶ cells were injected per colla plug (Integra LifeSciences Co., Plainsboro, N.J.). Colla plugs were embedded in OCT medium (Sakura Finetek Inc., Torrance, Calif.), frozen at −20° C. and cut into 20 μm sections using a cryostat. Sections were fixed with 4% paraformaldehyde for 1 hour at room temperature (RT) and subsequently washed in phosphate-buffered saline (PBS). Endogenous peroxidase was blocked with 3% H₂O₂/PBS for 15 min and sections were incubated in blocking solution (PBS with 3% normal goat serum (Vector Labs, Burlingame, Calif.) and 0.3% triton X-100) for 1 hour. […] Sections were cleared with xylene and cover slipped with Permount (Fisher Chemicals, Fair Lawn, N.J.). Immunoreactivity was analyzed using a Nikon E-800 microscope and associated software (Nikon, Melville, N.Y.).

In assay [2] the target is T2, human adrenomedullin receptor 2 (hCRLR + hRAMP3) (human, UniProt O60896 24-148).
T2 construct: whole, on cells; CHO cell line bought from EuroScreen; also called hAM2; AM2
In words: immunohistochemistry, CHO cells expressing recombinant human adrenomedullin receptor 2 (CRLR+RAMP3), staining intensity (visual score); the text says no staining was observed. As for the experimental part:
as §1

In assay [3] the target is T3, human adrenomedullin receptor 1 (hCRLR + hRAMP2) (human, UniProt O60895 43-175).
T3 construct: whole, on cells; also called hAM1; AM1
Nature of the assay: immunohistochemistry, HEK cells expressing recombinant human adrenomedullin receptor 1 (CRLR+RAMP2), staining intensity (visual score); the text says no staining was observed. As for the experimental part:
as §1

The target in assay [4] is T4, cynomolgus CGRP receptor (cynoCRLR + cynoRAMP1) (cynomolgus monkey).
T4 chain 1: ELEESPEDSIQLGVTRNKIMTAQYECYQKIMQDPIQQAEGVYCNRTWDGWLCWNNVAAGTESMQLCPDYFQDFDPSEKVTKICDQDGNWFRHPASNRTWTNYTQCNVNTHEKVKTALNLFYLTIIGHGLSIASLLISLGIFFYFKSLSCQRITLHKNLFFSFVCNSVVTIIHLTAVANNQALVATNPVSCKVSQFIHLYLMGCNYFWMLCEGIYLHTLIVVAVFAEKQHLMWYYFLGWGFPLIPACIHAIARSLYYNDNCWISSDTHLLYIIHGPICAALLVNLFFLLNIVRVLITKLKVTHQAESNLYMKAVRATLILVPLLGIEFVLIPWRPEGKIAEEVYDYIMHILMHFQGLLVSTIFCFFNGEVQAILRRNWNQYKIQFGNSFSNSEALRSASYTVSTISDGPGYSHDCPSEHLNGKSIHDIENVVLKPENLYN
T4 chain 2: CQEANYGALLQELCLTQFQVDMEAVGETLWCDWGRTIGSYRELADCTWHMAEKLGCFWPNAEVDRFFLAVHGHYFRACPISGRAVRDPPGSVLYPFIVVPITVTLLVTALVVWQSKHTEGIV
In words: cell-based or functional assay.

Assay [5] deals with T1, human amylin AMY1 receptor (hCTR + …). In words: cell-based or functional assay.
In assay [6] the target is T3, human adrenomedullin receptor 1 (hCRLR …). Nature of the assay: cell-based or functional assay.
The target of assay [7] is T2, human adrenomedullin receptor 2 (hCRLR …). In words: cell-based or functional assay.
Assay [8] deals with T5, chimeric CGRP receptor: CRLR chimera #1 (L24 to Q33) + RAMP1 wt (human/rat chimera; human, UniProt Q16602 1-461; O60894 27-148).
T5 construct: also called CRLR L24-Q33+RAMP wt
In words: FACS on transfected 293-6E cells. Here is the method: Cells were harvested after 72 hr, washed with PBS+0.5% BSA, and counted. Each transfected cell line was resuspended at a dilution of 5×10⁵ cells per 100 μl PBS/BSA. 100 μl of cell suspension was aliquot per well in a 96-well round-bottom plate (Falcon). The cells were pelleted at 1200 rpm for 5 min. […] Cells were incubated on ice for 1 hr. and then washed twice with PBS/BSA. […] Cells were incubated on ice in the dark for 1 hr. and then washed twice with PBS/BSA. Cells were resuspended in 200 μl PBS/BSA and analyzed using a FACS Calibur.

Assay [9] concerns the target T6, human CGRP receptor (CRLR + RAMP1) (human, UniProt Q16602 23-461; O60894 27-148).
T6 construct: also called hCGRP R; huCGRP R
In words: immunohistochemistry, CGRP/CHO cells, staining intensity (visual score). Here is the method: as §1

T2 sequence (O60896 24-148): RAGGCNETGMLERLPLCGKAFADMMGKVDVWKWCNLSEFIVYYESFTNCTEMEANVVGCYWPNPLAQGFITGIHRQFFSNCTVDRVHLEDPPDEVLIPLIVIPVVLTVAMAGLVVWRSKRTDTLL
T1 sequence (P30988 25-474): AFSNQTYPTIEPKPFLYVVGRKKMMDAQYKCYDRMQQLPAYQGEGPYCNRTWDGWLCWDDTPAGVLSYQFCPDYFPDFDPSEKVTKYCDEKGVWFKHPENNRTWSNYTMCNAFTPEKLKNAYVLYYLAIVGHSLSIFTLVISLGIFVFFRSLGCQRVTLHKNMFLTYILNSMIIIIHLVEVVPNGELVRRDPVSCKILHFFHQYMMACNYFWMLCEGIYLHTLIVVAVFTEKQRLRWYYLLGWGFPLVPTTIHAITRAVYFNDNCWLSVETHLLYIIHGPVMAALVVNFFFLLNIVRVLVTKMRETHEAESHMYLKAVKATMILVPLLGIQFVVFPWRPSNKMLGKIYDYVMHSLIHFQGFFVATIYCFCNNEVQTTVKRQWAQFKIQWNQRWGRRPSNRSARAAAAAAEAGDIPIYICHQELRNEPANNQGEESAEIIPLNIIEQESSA

B1: 32H7 (antibody, human IgG2, kappa, V domains shown)
VH: QVQLVESGGGVVQPGRSLRLSCAASGFTFSSYGMHWVRQAPGKGLEWVAVIWYDGSNKYYADSVKGRFIISRDKSKNTLYLQMNSLRAEDTAVYYCARAGGIAAAGLYYYYGMDVWGQGTTVTVSS
VL: EIVLTQSPGTLSLSPGERATLSCRASQSVSSGYLTWYQQKPGQAPRLLIYGASSRATGIPDRFSGSGSGTDFTLTISRLEPEDFAVYYCQQYGNSLCRFGQGTKLEIKR
notes: also called 32H7.1G
With B1, the binding result is “no binding” in assay [1]; “no binding” in assay [2]; “no binding” in assay [3]; “binds” in assay [8]; “binds” in assay [9]. For the same molecule, the “cAMP assay IC50” value in assay [4] is 1.93 nM; in [5], above 1000 nM; in [6], above 1000 nM; in assay [7] it was above 1000 nM.
